Target: Full-length human Nf1-23a (neurofibromin isoform 2) (human) (UniProt P21359)
Experiment: cryo-EM structure; single-particle cryo-EM of purified Nf1-23a at ~0.5 mg/ml in 20 mM Tris pH 8.0, 300 mM NaCl, 2 mM DTT, grids frozen at 4 °C; native sample and sample incubated 90 min with 50 µM ZnCl2; homodimer, no symmetry imposed (C1)
Settings: remark: other sources report otherwise

stoichiometry N: 2
Substance: Full-length human Nf1-23a (neurofibromin isoform 2), P21359 1-2839

— paper PMC8580823
